This note sets out measurements from patent US7202329.

The assay concerns the target yeast two-hybrid activation domain-Tsg101 construct (full-length Tsg101) (human) (UniProt Q99816). Description: cell-based or functional assay.

Sequence of yeast two-hybrid activation domain-Tsg101 construct (full-length Tsg101) (human) (Q99816 whole entry, the tested form may be a part): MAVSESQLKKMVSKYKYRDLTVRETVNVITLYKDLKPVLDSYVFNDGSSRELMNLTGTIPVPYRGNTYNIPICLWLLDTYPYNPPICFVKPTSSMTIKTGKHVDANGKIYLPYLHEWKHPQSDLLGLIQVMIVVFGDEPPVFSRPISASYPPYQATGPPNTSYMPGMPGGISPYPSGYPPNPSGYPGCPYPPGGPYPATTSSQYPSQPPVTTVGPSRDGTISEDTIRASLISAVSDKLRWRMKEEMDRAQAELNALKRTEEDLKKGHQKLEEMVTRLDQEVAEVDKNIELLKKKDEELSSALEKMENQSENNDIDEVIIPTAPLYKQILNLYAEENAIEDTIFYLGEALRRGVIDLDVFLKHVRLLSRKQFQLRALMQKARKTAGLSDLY

Turning to “yeast two-hybrid DNA binding domain-HIV1 GAGp6 construct, wild type (from UniProt P04386 1-147; P12493 449-500)”, the β-galactosidase activity, two-hybrid liquid culture assay (fold over background) was above 300.
